System: MBP-CPEB
Assay: EMSA
Conditions: 10 mM HEPES-KOH pH 7.9, 50 mM KCl, 1 mM MgCl2, 0.1 mM ZnCl2, 0.1% NP-40, 1 mM DTT, 2 ug yeast tRNA, 2 ug BSA, 12 U RNaseOUT, 10 uL, 15 fmol RNA, room …

How did the Kd turn out when “c-myc pA2 cCPE only (ncCPE1 and ncCPE2 mutated)” was run?
Its Kd is 212 nM.

For “c-myc 3'UTR pA2 wild type (cCPE + ncCPE1 + ncCPE2)”, which Kd (two CPEB molecules bound (second shift)) is on record?
The Kd was 279 nM.

Which Kd does the source give for “c-myc pA2 ncCPE1 only (cCPE and ncCPE2 mutated)” here?
The Kd was 890 nM.

How did the Kd (no second CPEB binding) turn out when c-myc pA2 ncCPE1/2 (cCPE mutated) was run?
Its Kd is 891 nM.

With “c-myc pA2 ncCPE2 only (cCPE and ncCPE1 mutated)” as the substance, how does the Kd (low affinity, Kd lower bound) read?
Its Kd is > 1000 nM.
